Source: the DeepSol protein solubility set

Assay: soluble on expression in E. coli; label from the status in PepcDB or PDB records

| Sequence | soluble on expression in E. coli |
| --- | --- |
| MKQVAVISGKGGTGKTTFSATIHALEGGVVADCDVDAPNLHILLKPQILKAEDFIASKKARIMPEKCSSCGLCYDLCRFGAVVAEDGYYVDEKKCEGCAFCFNVCPERAIEMENVKTGDLYVSKTEWGYFVHARLKPGEENTGRLVTEVKNRAKEIAEESNAEFLIVDSAPGVGCPVMASLTGVDAAIIVTEPTVSGLSDMLRILELCEHFRIRPFVVVNKFDLNVNIASEIESYCSENGVEFAGRVPFDKAIPEQIANLNFPFSGKAADKMVEIWKKLREVLLEHHHHHH | soluble |
| MPEEKQKKSVLEKALKRIEENFGKGSIMILGDETQVQPVEVIPTGSLAIDIATGVGGYPRGRIVEIFGQESSGKTTLALHAIAEAQKMGGVAAFIDAEHALDPVYAKNLGVDLKSLLISQPDHGEQALEIVDELVRSGVVDLIVVDSVAALVPRAEIEGAMGDMQVGLQARLMSQALRKIAGSVNKSKAVVIFTNQIRMKIGVMFGSPETTTGGLALKFYATMRMEVRRGEPIKEGKDVIGNVISVKIVKNKVAPPFKTAQTYIIYGKGIDREYELFNIAVNEGIVDRKGSWYYYTTLKGEEVSLGQGSSNAVQFLKDNPEIAGEIERRIREKYGLLSVEKEEQRKEKKSSGEEAS | soluble |
| MDPTRGLCALSTHDLAKFHSLPPARKAAGKRAHLRCYSKLLSLKSWEQLASFLSLPPGPTFTDFRLFFEVTLGRRIADCVVVALQPYPRCYIVEFKTAMSNTANPQSVTRKAQRLEGTAQLCDCANFLRTSCPPVLGSQGLEVLAALVFKNQRSLRTLQVEFPALGQKTLPTSTTGLLNLLSRWQDGALRARLDRPRPTAQGHRPRTHVGPKPSQLTARVPRSARAGRAGGRKGQVGAVGQVCPGAQK | not soluble |
| GPGSMAHEHGNEFAGPGGGNGGNGGNVMLQCVKQHTDLSHIEDLGSQISAGAGCCGFSREAHGKRGQDLWLQLPLGTQVVDMDTNEVQYDMDEEGMQIVLLEGGQGGKGNAAFANKWHHSPIESTKGLPGNTMLAQIELKTIADCGLIGYPNAGKSSLLSAISASKPTIAPYAFTTLRPYVGVLHDLYGNVCRVADIPGLIEGAYENRGLGHQFLRHVERTKCLALVVDMCNTYVPDTGLRNSSEVLQPWDVVELLLQELEYYLPGMSQRVIMTFANKMDIEKDSTGTATQVKLSELKRRVSMPVFPISAALGIHLGPQHEQTGLAPALQFMCGEVFARQSQEREMRQFRFSHERAQLERAFRAKHNGVFLPQVHALGAHGAEASQDLDDEAADRGGSLVDQQLDFLGNSGLGVKFDAYENSAARGQLHRYRDLTMKGKYWNLTRQDGEVMKGEKWS | not soluble |
| MGSDKIHHHHHHMTIHKLKEKVASTDFEQHSYAFRRFVLDELRVYIPFAAACFTTIDPESLLSTGTVMDKQLEPIHTLILENEHTGSDYNHYFQLVDSSPHIATLHDATGGNLTASQRYTRILAPAGFHDELRAALIDQGKCWGHLTLFHSKHHSPFSREEQQLVNSLLPAITKKVKRLTFQSTFSPSPNSSHFEAAIMIFSDTFELLSANEAAHSLLSLLREQEQLGEGTFPRPIETLCVKIKATSSSKEEGEIDRWSVCIPAANGQLLTLYASKLTSELLPEQYAVISQNTSPFERLGYSLLYYGLTQREIQIVEQIVNGYTTKQISSHLYISTHTVQDHLKSIFAKMNVNSRRELLSFLNQANK | not soluble |
| MRGSHHHHHHGSMAEKNYVMAIDQGTTSSRAIIFDRNGKKIGSSQKEFPQYFPKSGWVEHNANEIWNSVQSVIAGAFIESGIRPEAIAGIGITNQRETTVVWDKTTGQPIANAIVWQSRQSSPIADQLKVDGHTEMIHEKTGLVIDAYFSATKVRWLLDNIEGAQEKADNGELLFGTIDSWLVWKLTDGQVHVTDYSNASRTMLYNIHKLEWDQEILDLLNIPSSMLPEVKSNSEVYGHTRSYRFYGSEVPIAGMAGDQQAALFGQMAFEKGMIKNTYGTGAFIVMNTGEEPQLSDNDLLTTIGYGINGKVYYALEGSIFVAGSAIQWLRDGLRMIETSPQSEELAAKAKGDNEVYVVPAFTGLGAPYWDSEARGAVFGLTRGTTKEDFVRATLQAVAYQSKDVIDTMKKDSGIDIPLLKVDGGAAKNDLLMQFQADILDIDVQRAANLETTALGAAYLAGLAVGFWKDLDELKSMAEEGQMFTPEMPAEERDNLYEGWKQAVAATQTFKFKAKKEGE | soluble |
| MAHHHHHHMKIRTVLRKRIRLHGTNCPGFTCHHNRFSRLLKTWVVVLPPKQLAVYKNGVQLLLQLVTEHLTGDGDVLLQLRYQHMIAKEMLSGRHNTASFRVTYGFLTFDGVNPKVCAMNLLCGNPLIVKHSACLQCTHPSFVRVLNFCVTLKKRRTIVSKPQGRPTKKQLKVAPQHR | not soluble |
| MDFWPEFMATSWGREFVAGGFGGVAGIISGYPLDTLRIRQQQSSKSGSAFSILRRMLAIEGPSSLYRGMAAPLASVTFQNAMVFQIYAIFSRSFDSSVPLVEPPSYRGVALGGVATGAVQSLLLTPVELIKIRLQLQQTKSGPITLAKSILRRQGLQGLYRGLTITVLRDAPAHGLYFWTYEYVRERLHPGCRKTGQENLRTMLVAGGLAGVASWVACYPLDVVKTRLQQGHGAYEGIADCFRKSVKQEGYTVLWRGLGTAVARAFVVNGAIFAAYEVALRCLFNQSPSPDIVTGD | soluble |
| MRDTRGGDQGGGLEAQGGAEARNALPPETIVLILPWEPGSRRQPLKAGQVILKWGGYTMPYLVGPKGQVVIAKEIRERLGIRPGWRVIQRLVDDHVELYFLPPPHKASLKGLLRDKIRGTVSEEAWAEARERAWRASWSEEGEG | soluble |
| MKTFKAVRFQIVNEHGRIIEYELEDGVIINKEESGTGWLLEIVISNEHYETFKEYQDNEQLLDIRVVITRPANDPALFESTVKSIKNFKTTMSIVFECHIYTLRQQYAESLLEQLIDDGLSGEELKKSFNRMMQSKPKLKDEKLEE | not soluble |
| MTAELLVNVTPSETRVAYIDGGILQEIHIEREARRGIVGNIYKGRVSRVLPGMQAAFVDIGLDKAAFLHASDIMPHTECVAGEEQKQFTVRDISELVRQGQDLMVQVVKDPLGTKGARLTTDITLPSRYLVFMPGASHVGVSQRIESESERERLKKVVAEYCDEQGGFIIRTAAEGVGEAELASDAAYLKRVWTKVMERKKRPQTRYQLYGELALAQRVLRDFADAELDRIRVDSRLTYEALLEFTSEYIPEMTSKLEHYTGRQPIFDLFDVENEIQRALERKVELKSGGYLIIDQTEAMTTVDINTGAFVGHRNLDDTIFNTNIEATQAIARQLRLRNLGGIIIIDFIDMNNEDHRRRVLHSLEQALSKDRVKTSVNGFSALGLVEMTRKRTRESIEHVLCNECPTCHGRGTVKTVETVCYEIMREIVRVHHAYDSDRFLVYASPAVAEALKGEESHSLAEVEIFVGKQVKVQIEPLYNQEQFDVVMM | soluble |
| MGSDKIHHHHHHMGTRKGDAMEKFDTVVIGAGQAGIATSEHLRALGIDHVVLERGRIAERWRSERWDSLVANGPAWHDRFPGMAFSCDGDVFADKECVARYFEDYAKMIDAPVRTGVTVERARPHADRAGFLVETSQGTFDARNLICATGPFQKPAIPPIIPETSDLTQMHSTAYRNPDALPDGAVLVIGGGSSGSQIAAELHDAGRKVFFSIGPHDRPPRRYRGRDNVWWLGVLGIWNMDTPAPGTEHVTIAVSGAHGGKTVDFRLLAERGITLLGMSSGYEDGVLHIANDLKTNLDAGDANMLSLLEAADAYIKRTGIDLPPEPEAWVIPDDPDCVSNPVRALDLSENNIGTVIWATGFQFDYDWLEADTLDDRGSPIHQRGISAVPGLYFVGLPWQSRRGSSFIWGVWHDAKFIADQIAIQENYLAYRPTASS | not soluble |
| MRYDVVVVGSGVAGPIVARNVAKAGFSVLLVDKKPAIGAPKQCAEGLTINAFKQFDIPYDKRFINREIYGAKIYSPSGYTAELRYKEVSGVILERKVFDKMLAYYAAKAGAEVLARTEVVDVIRREGKIVGVKAKHEGEPMEIEAKVIVAADGVESTIARKAGIDTYAPPHEFDSGYEYEMIIEGFDPDLIHLFFGNEVAPRGYVWVFPKDEDRANVGIGINSDNEKTAKYYLDKWLKENNIPRNKILEVNVGLIPVGGFVKELVKENVLVVGDAARQVNPIHGGGMAEAMKASTIASKWIIKALEEENLELLKNYKEEWWKTEGPRMEKLLRLRRAMEKLTDEDLDVFVQLVSGTDLEKIAGGNYIEVVKALMKHPKVLMSRRRLEILKALLLEHHHHHH | soluble |
| SQPLLDRSIPDFTAFTTVDDWLSAIKMVQYRDSFLTAGFTSLQLVTQMTSEDLLRIGITLAGHQKKILNSIHSMRVQISQSPTAMA | soluble |
| MSLATLQDLDLTGNTNLVLEHKTLDIFSHITTLKIDQKPLPTTDSTVTSTFWSHGLAEMAGQRNKLCVSALAMDSFAEGVGAVYGMFDGDRNEELPRLLQCTMADVLLEEVQQSTNDTVFMANTFLVSHRKLGMAGQKLGSSALLCYIRPDTADPASSFSLTVANVGTCQAVLCRGGKPVPLSKVFSLEQDPEEAQRVKDQKAIITEDNKVNGVTCCTRMLGCTYLYPWILPKPHISSTPLTIQDELLILGNKALWEHLSYTEAVNAVRHVQDPLAAAKKLCTLAQSYGCQDNVGAMVVYLNIGEEGCTCEMNGLTLPGPVGFASTTTIKEGHHHHHH | soluble |
| MGSDKIHHHHHHMIVLSKRELFAMLPSVDEVLSDNRIVEIINEYPRSLVLESVREVIDLKRQFILRLKEDASNSVTIEFGEIIESAIERVKLNYSLSLKKVINATGTVIHTNLGRSLLSEDIKDELWCAASRYSNLEYDLDNGERGSRYSHLTSTIKRLTGAEDVLVVNNNAAAVLLVLSTMAKGGEAIVSRGELVEVGGSFRIPSIMALSGAELVEVGSTNKTHLKDYKEAITEDTNVLMKVHTSNYRIMGFTESVSIEELVNLGKKYKLPVIEDLGSGVFIDLSKYGLSYEPTVLDSIRQGADVVTFSGDKMLGGPQAGIIVGKKEYIEKMKKNQLTRALRVDKLTICALEATLRMYLDETKAIENIPTLKMLTYKIEELEVKANKLFEKITALNLNANINIEDGFSQVGGGSMPLETISTKVISITPEHMNVSSLEKKLRLSEAHIIARVYDNKYVLDVRTIFDDEFDVIVEELRKAFN | not soluble |
| MLAVSSAIVSSAMYILSFPGQASGITKEQVTKHMKKESFKQADIYYTSKEKSLLPLTKETLEYAVSINQIMIGYSNQKPIDIIFFLMKNRWRLTPVYWMLEHHHHHH | not soluble |
| MGSDKIHHHHHHNKESTTECQTIDFSTLFDGQPEKIPLKEWAKSIHFVQLETNDSILIGNIRATILHKDKILVHHNNLSLFDLSGKFICNIGSKGGGPTEYSGINNAWTDDEGIHIFDIDNKIKTYNWNGKWIKTEPIPESNIKEVFPLASGNNIKAGYIQNITGNEPHKIYLFKDSTILAKIPYGKSFQKGEMTMVFYNECYPFHADGRTFFKEMFNDTIFSIDNQYQPIPRWYIELGKYKIAEDARYTLTDPRKSVFDNAATLTPIGKWDNKLFFSARANKQNYLFYYDLKEKKSNSIQISYPENSFAIPEEHSFIPKCMSDDGKYLISYEIQENDENPVIILAEK | not soluble |
| ILGIKTLLAVYRLFGRKAFDLILKLVMRYYHFTGKSAREASEIYLQNLQRYAAQQNIALPKQLDSYHHLLSFGRTMLDKLAAWQGDFNVDNLTIHGQHHFEEMAQKKQGVLILGSHLGNIELCRALGRRHSHVKINALVFTQHAEQFNAVMKAVNPNSELNLIQVSSMGPDTAILLQQKIEQGEWVVIVGDRTSTSKENRVVWADFLGKPAPFPQGPFMLASVLKAPVYLLFGLRDDEANTPHFNVYFEHFSDQITLPRKERQQALEHVVQQYAHRLEHHTLQAPLQWYNFFNFWTLSNQPHDKQQ | not soluble |
